# T1: Pf MSP1-42, C-terminal fragment of the P. falciparum merozoite surface protein MSP1 (Plasmodium falciparum, UniProt Q8I0U8 1327-1699)
# T1 construct: domain: MSP1-42; Immobilised on CM5 sensor chips
# T1 sequence: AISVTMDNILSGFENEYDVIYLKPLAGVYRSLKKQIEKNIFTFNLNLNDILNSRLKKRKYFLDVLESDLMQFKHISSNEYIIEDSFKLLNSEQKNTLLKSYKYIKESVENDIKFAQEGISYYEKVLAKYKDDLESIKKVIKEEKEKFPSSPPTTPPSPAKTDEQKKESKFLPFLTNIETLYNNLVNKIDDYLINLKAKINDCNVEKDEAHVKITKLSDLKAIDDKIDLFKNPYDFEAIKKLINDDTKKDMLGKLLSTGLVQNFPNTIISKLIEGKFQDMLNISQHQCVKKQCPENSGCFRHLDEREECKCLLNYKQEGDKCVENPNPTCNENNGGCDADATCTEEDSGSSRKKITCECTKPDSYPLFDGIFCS
# T2: ICAM-2 (UniProt P13598 25-223)
# T2 sequence: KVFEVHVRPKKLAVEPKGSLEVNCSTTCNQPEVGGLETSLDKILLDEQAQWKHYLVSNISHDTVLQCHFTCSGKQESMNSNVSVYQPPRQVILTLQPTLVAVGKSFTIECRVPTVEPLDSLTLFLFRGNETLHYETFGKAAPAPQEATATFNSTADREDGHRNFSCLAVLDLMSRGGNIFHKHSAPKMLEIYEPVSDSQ
# T3: HIV-1 nef (HIV-1, UniProt P04601 1-206)
# T3 sequence: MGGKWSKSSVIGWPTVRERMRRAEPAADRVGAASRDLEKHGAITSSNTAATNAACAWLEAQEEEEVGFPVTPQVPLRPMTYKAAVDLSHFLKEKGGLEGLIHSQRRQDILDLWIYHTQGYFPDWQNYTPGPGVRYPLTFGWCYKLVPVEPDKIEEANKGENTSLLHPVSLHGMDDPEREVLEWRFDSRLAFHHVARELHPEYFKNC
# T4: ICAM-3 (UniProt P32942 30-485, limits assumed)
# T4 sequence (looked up): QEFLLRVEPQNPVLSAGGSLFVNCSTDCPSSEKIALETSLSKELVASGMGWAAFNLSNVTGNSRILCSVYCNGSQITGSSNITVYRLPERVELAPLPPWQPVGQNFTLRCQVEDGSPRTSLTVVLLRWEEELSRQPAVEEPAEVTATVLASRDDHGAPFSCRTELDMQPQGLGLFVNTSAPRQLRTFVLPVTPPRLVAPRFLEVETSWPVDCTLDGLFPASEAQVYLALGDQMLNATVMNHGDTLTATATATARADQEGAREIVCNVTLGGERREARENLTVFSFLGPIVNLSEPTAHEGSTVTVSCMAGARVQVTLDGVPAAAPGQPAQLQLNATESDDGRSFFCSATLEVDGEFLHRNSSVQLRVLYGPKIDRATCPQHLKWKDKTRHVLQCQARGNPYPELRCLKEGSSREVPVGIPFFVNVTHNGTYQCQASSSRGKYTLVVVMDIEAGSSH
# B1: Pf MSP1-19, C-terminal fragment of the P. falciparum merozoite surface protein MSP1 (other)
# chain: NISQHQCVKKQCPENSGCFRHLDEREECKCLLNYKQEGDKCVENPNPTCNENNGGCDADATCTEEDSGSSRKKITCECTKPDSYPLFDGIFCS
# notes: domain: MSP1-19; Immobilised on CM5 sensor chips
# B2: Laz from Neisseria gonorrhoeae F62 (other)
# chain: CSQEPAAPAAEATPAGEAPASEAPAAEAAPADAAEAPAAGNCAATVESNDNMQFNTKDIQVSKACKEFTITLKHTGTQPKASMGHNLVIAKAEDMDGVFKDGVGAADTDYVKPDDARVVAHTKLIGGGEESSLTLDPAKLADGDYKFACTFPGHGALMNGKVTLVD
# notes: also called Neisserial Laz protein
# B3: azurin from Pseudomonas aeruginosa (other)
# chain: AECSVDIQGNDQMQFNTNAITVDKSCKQFTVNLSHPGNLPKNVMGHNWVLSTAADMQGVVTDGMASGLDKDYLKPDDSRVIAHTKLIGSGEKDSVTFDVSKLKEGEQYMFFCTFPGHSALMKGTLTLK
# notes: Recombinant cupredoxin (copper protein) expressed in E. coli JM109 from pUC19-paz; also called wt azurin; wt-azurin
# B4: H.8-azurin (H.8 epitope of Laz fused in frame to the N-terminal part of P. aeruginosa azurin) (other)
# chain: CSQEPAAPAAEATPAGEAPASEAPAAEAAPADAAEAPAAAECSVDIQGNDQMQFNTNAITVDKSCKQFTVNLSHPGNLPKNVMGHNWVLSTAADMQGVVTDGMASGLDKDYLKPDDSRVIAHTKLIGSGEKDSVTFDVSKLKEGEQYMFFCTFPGHSALMKGTLTLK
# notes: also called H.8-Paz; H.8-paz
# B5: DC-SIGN (DC-specific intercellular adhesion molecule 3-grabbing nonintegrin) (receptor, UniProt Q9NNX6 62-404, looked up)
# chain: KVPSSISQEQSRQDAIYQNLTQLKAAVGELSEKSKLQEIYQELTQLKAAVGELPEKSKLQEIYQELTRLKAAVGELPEKSKLQEIYQELTWLKAAVGELPEKSKMQEIYQELTRLKAAVGELPEKSKQQEIYQELTRLKAAVGELPEKSKQQEIYQELTRLKAAVGELPEKSKQQEIYQELTQLKAAVERLCHPCPWEWTFFQGNCYFMSNSQRNWHDSITACKEVGAQLVVIKSAEEQNFLQLQSSRSNRFTWMGLSDLNQEGTWQWVDGSPLLPSFKQYWNRGEPNNVGEEDCAEFSGNGWNDDKCNLAKFWICKKSAASCSRDEEQFLSPAPATPNPPPA
# notes: Immobilised on a CM5 sensor chip
# B6: H.8-GST (H.8 epitope fused in the N-terminal of GST) (other)
# chain: CSQEPAAPAAEATPAGEAPASEAPAAEAAPADAAEAPAA
# notes: not shown: glutathione S-transferase (GST) of the commercial pGEX-5X-3 / pET29a-gst vectors
# Legend:
# [1] = biological target: T5, glutathione S-transferase (GST) (UniProt P08515 1-218 = GST); test: SPR, MSP1-19 immobilised on CM5
# T5 construct: Control protein in the SPR experiments
# T5 sequence (P08515 whole entry): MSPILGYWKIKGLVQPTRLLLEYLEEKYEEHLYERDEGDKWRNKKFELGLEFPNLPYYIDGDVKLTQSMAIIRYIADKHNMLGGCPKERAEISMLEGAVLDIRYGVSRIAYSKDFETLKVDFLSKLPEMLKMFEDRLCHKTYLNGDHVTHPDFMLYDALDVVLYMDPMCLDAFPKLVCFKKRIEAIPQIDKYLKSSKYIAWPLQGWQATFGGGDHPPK
# [2] = biological target: T6, GST-Azu 36-128 (GST fused in frame to azurin amino acids 36 to 128) (Pseudomonas aeruginosa, UniProt P08515 1-218 = GST); test: SPR, MSP1-19 immobilised on CM5
# T6 construct: Azurin fragment cloned into the BamHI and EcoRI sites of pGEX-5X
# [3] = biological target: T7, GST-Azu 36-89 (GST fused in frame to azurin amino acids 36 to 89) (Pseudomonas aeruginosa, UniProt P08515 1-218 = GST); test: SPR, MSP1-19 immobilised on CM5
# T7 construct: also called pGST-azu 36-89 product
# T7 sequence (P08515 1-218, tags or fused parts left off): as the sequence (P08515 whole entry) above
# [4] = biological target: GST-Azu 88-113 (GST fused in frame to azurin amino acids 88 to 113) (Pseudomonas aeruginosa, UniProt P08515 1-218 = GST); test: SPR, MSP1-19 immobilised on CM5, GST-Azu fusion series
# GST-Azu 88-113 (GST fused in frame to azurin amino acids 88 to 113), sequence (P08515 1-218, tags left off): as the sequence (P08515 whole entry) above
# [5] = biological target: B3; test: SPR (Biacore X), MSP1-19 immobilised on CM5, equilibrium response fitted to Req=Rmax/(1+(Kd/C))
# [6] = biological target: B2; test: as above
# [7] = biological target: T1, Pf MSP1-42, C-terminal fragment of the …; test: SPR (Biacore X), MSP1-42 immobilised on CM5, equilibrium response fitted to Req=Rmax/(1+(Kd/C))
# ICAM-1 = ICAM-1 (UniProt P05362 28-480); test: SPR, azurin immobilised on CM5
# ICAM-1, sequence (P05362 28-480 limits assumed): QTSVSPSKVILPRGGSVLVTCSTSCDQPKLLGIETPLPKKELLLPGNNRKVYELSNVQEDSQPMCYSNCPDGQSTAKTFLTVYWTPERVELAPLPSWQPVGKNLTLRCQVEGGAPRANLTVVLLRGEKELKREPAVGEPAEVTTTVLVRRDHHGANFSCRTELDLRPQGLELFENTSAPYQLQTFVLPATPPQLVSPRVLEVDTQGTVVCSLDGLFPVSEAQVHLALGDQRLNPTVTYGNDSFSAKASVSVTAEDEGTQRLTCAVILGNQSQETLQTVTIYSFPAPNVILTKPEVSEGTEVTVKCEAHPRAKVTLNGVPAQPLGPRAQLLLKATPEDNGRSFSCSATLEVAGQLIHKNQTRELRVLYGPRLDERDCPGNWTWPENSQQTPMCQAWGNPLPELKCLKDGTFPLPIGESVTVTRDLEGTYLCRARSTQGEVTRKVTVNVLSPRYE
# ICAM-2 = biological target: T2, ICAM-2; test: SPR, azurin immobilised on CM5
# HIV-1 gp41 = HIV-1 gp41 (HIV-1, UniProt P04578 512-684); test: SPR, azurin immobilised on CM5
# HIV-1 gag = HIV-1 gag (HIV-1, UniProt P04591 1-500); test: SPR, azurin immobilised on CM5 (target taken from the preceding sentence)
# HIV-1 nef = biological target: T3, HIV-1 nef; test: as above
# CD4 [8] = biological target: T8, CD4 (UniProt P01730 26-396); test: SPR, azurin immobilised on CM5 (Az-CM5), 1 mg/ml CM5 in HBS-EP running buffer
# T8 construct: Bought protein; Used both immobilised on CM5 and as eluent
# CD4 [9] = biological target: T8, CD4; test: SPR, CD4 immobilised on CM5 (CD4-CM5), equilibrium response fitted to Req=Rmax/(1+(Kd/C))
# ICAM-3 [10] = biological target: T4, ICAM-3; test: SPR, azurin immobilised on CM5, 1 mg/ml CM5 (carboxymethyldextran) in HBS-EP running buffer
# NCAM = biological target: T9, NCAM (UniProt P13591 20-718); test: as above
# T9 construct: also called Neural Cell Adhesion Molecule
# [11] = biological target: B5; test: SPR, DC-SIGN immobilised on CM5, proteins injected at 0-100 nM, equilibrium response fitted to Req=Rmax/(1+(Kd/C))
# [12] = biological target: B1; test: SPR (Biacore X), MSP1-19 immobilised on CM5, equilibrium response fitted to Req=Rmax/(1+(Kd/C))
# ICAM-3 [13] = biological target: T4, ICAM-3; test: SPR, DC-SIGN immobilised on CM5, proteins injected at 0-100 nM, equilibrium response fitted to Req=Rmax/(1+(Kd/C))
# [14] = biological target: B1; test: SPR, MSP1-19 immobilised on CM5
binder,measurement,setting,value
B1,binding result,[1],no binding (tested: 0.05-300 nM (FIG. 7 legend))
same,Kd,[2],24.5 nM
same,Kd,[3],20.9 nM
same,binding result,[4],no binding
same,Kd,[5],32.2 nM
same,Kd,[6],26.2 nM
B2,Kd,[7],45.6 nM
B3,binding result,ICAM-1,no binding
same,binding result,ICAM-2,no binding
same,binding result,HIV-1 gp41,no binding
same,binding result,HIV-1 gag,no binding
same,binding result,HIV-1 nef,no binding
same,Kd,CD4 [8],25.1 nM
same,Kd,CD4 [9],36.9 nM
same,Kd,ICAM-3 [10],19.5 nM
same,Kd,NCAM,20 nM
same,Kd,[7],54.3 nM
same,Kd,[11],0.83 nM
B4,Kd,[12],11.8 nM
same,Kd,[7],14.3 nM
B5,Kd,ICAM-3 [13],0.93 nM
B6,binding result,[14],no binding (tested: 0.05-300 nM (FIG. 7 legend))

# From patent US20140287990A1 (published 2014)
